Tests used:
[1] = biological target: HLA monomer of the STII-TR-FRET peptide exchange assay (secreted HLA class II alpha/beta heterodimer; allele not stated); test: TR-FRET peptide exchange titration on 20nM DRB1*01:01 (STII-CLIP), 37C; displaced: m2
[2] = biological target: T1, Thrombin digested soluble HLA-DRB1*15:01 (CLIP0 placeholder construct) (human); test: differential scanning fluorometry after peptide exchange (Sypro orange)
[3] = biological target: T1, Thrombin digested soluble …; test: FP probe displacement; probe m27
[4] = biological target: T2, HLA-DRB1*11:01 (biochemical MHC-peptide affinity assay) (human); test: biochemical MHC-peptide affinity assay
T2 chain 1: not shown
T2 chain 2: not shown

[5] = biological target: T3, HLA-DRB1*01:01 (biochemical MHC-peptide affinity assay) (human); test: biochemical MHC-peptide affinity assay
T3 chain 1: not shown
T3 chain 2: not shown

For CLIP (peptide), the IC50 (read off the curve) [1] was 70 nM.

PQILPYPAPEEAQEN (modifications not checked) [M231] was tested, and the Average Tm [2] was 73.9, the DTm (sample Tm - control Tm) [2] was 15.6 and the % inhibition of probe binding at 0.1uM [3] was 21%. For the same molecule, the % inhibition of probe binding at 1uM [3] was 50% and the % inhibition of probe binding at 10uM [3] was 66%.

In the case of LNELKPISKGGHSS (modifications not checked), the Measured affinity [4] is reported as 67 nM.

Work on TRNEVIPMSHPGAVD (modifications not checked) yielded a Measured affinity [4] of 36 nM.

Molecule PPIDGYPNHPCFEPE (modifications not checked) [M230] has a DTm (sample Tm - control Tm) [2] of 21.4, a % inhibition of probe binding at 0.1uM [3] of 49% and a % inhibition of probe binding at 1uM [3] of 79%. For the same molecule, the % inhibition of probe binding at 10uM [3] was 82%.

DKKNIILEEGKEILVG (modifications not checked) gave a Measured affinity [5] of 27 nM.

Work on ENPYFAPNPKIIRQ (modifications not checked) yielded a Measured affinity [4] of 128 nM.

EPAEFIIDTRDAGYG (modifications not checked) gave a Measured affinity [4] of 195 nM.

Work on YEDKFRNNLKGKRLD (modifications not checked) yielded a Measured affinity [4] of 254 nM.

GHPDLQGQPAEEIFES (modifications not checked) showed a Measured affinity [5] of 189 nM.

With LAPTWEELSKKEFPG (modifications not checked) the Measured affinity [4] was 174 nM.

GPFSFSVIDKPPG (modifications not checked) showed a Measured affinity [4] of 209 nM.

Molecule IAGEWQVLHREGAIT (modifications not checked) has a Measured affinity [4] of 35 nM.

Molecule GVQRGLVGEIIKR (modifications not checked) has a Measured affinity [5] of 8 nM.

Molecule DLEELEVLERKPAAG (modifications not checked) has a Measured affinity [4] of 63 nM.

GLRYKKLHDPKGWIT (modifications not checked) was tested, and the Measured affinity [5] was 30 nM.

PQLRQWWAQGADPLA (modifications not checked) [M247] was tested, and the DTm (sample Tm - control Tm) [2] was 20.1, the % inhibition of probe binding at 0.1uM [3] was 42% and the % inhibition of probe binding at 1uM [3] was 50%. It also gave a % inhibition of probe binding at 10uM [3] of 58%.

DVNEYAPVFKEKSYK (modifications not checked) was tested, and the Measured affinity [4] was 223 nM.

GMNIVEAMERFGSRNG (modifications not checked) gave a Measured affinity [4] of 79 nM.

With SPHAFKTESGEETDL (modifications not checked) the Measured affinity [5] was 333 nM.

EGEYQGIPRAESGG (modifications not checked) gave a Measured affinity [4] of 159 nM.

For MPSFVPSDGRQAAD (modifications not checked), the Measured affinity [5] was 3 nM.

ASLRSWPSTWAPWAS (modifications not checked) [M371] gave a DTm (sample Tm - control Tm) [2] of 19.9, a % inhibition of probe binding at 0.1uM [3] of 46% and a % inhibition of probe binding at 1uM [3] of 58%. The % inhibition of probe binding at 10uM [3] was 74%.

Molecule TWFNQPARKIR (modifications not checked) has a Measured affinity [5] of 8 nM.

In the case of DRYEMEDGKVIER (modifications not checked), the Measured affinity [5] is reported as 54 nM.

GQQWTYEQRKIVE (modifications not checked) gave a Measured affinity [4] of 145 nM.

LLRPGQIVAFDSTAQ (modifications not checked) [M248] gave a DTm (sample Tm - control Tm) [2] of 5.6, a % inhibition of probe binding at 0.1uM [3] of 1% and a % inhibition of probe binding at 1uM [3] of 6%. For the same molecule, the % inhibition of probe binding at 10uM [3] was 61%.

— patent publication US20200279616A1
